# In US20250188189A1 (published 2025):
# Positions count from the first letter of the chain named.
# T1: plasma-derived human activated protein C (APC) (UniProt P04070 43-461)
# T1 chain: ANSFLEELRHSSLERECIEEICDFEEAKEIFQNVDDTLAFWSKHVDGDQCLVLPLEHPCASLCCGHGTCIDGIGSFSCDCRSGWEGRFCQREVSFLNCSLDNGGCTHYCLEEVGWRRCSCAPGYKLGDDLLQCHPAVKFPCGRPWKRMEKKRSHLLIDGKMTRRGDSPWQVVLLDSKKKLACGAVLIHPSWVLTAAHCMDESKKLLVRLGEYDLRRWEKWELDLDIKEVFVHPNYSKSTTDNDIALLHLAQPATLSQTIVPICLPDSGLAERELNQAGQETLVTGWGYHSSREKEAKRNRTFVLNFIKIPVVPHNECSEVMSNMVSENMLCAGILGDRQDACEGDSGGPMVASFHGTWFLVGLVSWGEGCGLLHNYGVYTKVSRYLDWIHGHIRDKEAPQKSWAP
# B1: TPP-24913 (antibody, V domains shown)
# VL: EIVLTQSPGTLSLSPGERATLSCRASQSVSSFGATFMHWYLQKPGQSPQLLIYLASNLESGVPARFSGSGSGTDFTLKISRVEAEDVGVYYCQQNNEDPYTFGQGTKLEIK
# B2: TPP-24847 (antibody, V domains shown)
# VL: DIVLTQSPASLAVSPGQRATITCKASQSVSSFGATFMHWYLQKPGQSPQLLIYLASNLESGVPARFSGSGSGTDFTLTINPVEADDTANYYCQQNNEDPYTFGQGTKLEIK
# B3: TPP-24851 (antibody, V domains shown)
# VL: B2 VL with L58R, E59A, A64D
# B4: TPP-24843 (antibody, V domains shown)
# VL: B2 VL with L41Q, S47P, Q49K, L58R, E59A, A64D
# B5: TPP-29845 (antibody, V domains shown)
# VH: EVQLVESGGGLVQPGGSLRLSCAASGFTFSNFYMNWVRQAPGKGLEWVSYISSSSSTIYYADSVKGRFTISRDDSKNSLYLQMNSLKTEDTAVYYCAREGDYFDYWGQGTLVTVSS
# VL: EIVLTQSPGTLSLSPGERATLSCRASQSVSSFGATFMHWYQQKPGQPPKLLIYLASNRASGVPDRFSGSGSGTDFTLKISRVEAEDVGVYYCQQNNEDPYTFGQGTKLEIKR
# B6: TPP-29848 (antibody, V domains shown)
# VH: B5 VH with F32Y
# VL: B5 VL with Q27E
# B7: TPP-29849 (antibody, V domains shown)
# VH: B5 VH with F32Y
# VL: B5 VL with S56W
# B8: TPP-24841 (antibody, V domains shown)
# VL: B2 VL with L41Q, S47P, Q49K, T78K, N80S, P81R, D85E, T87V, A88G, N89V
# B9: TPP-29855 (antibody, V domains shown)
# VH: B5 VH with F32Y, S54R
# VL: B5 VL
# B10: TPP-29844 (antibody, V domains shown)
# VH: B5 VH with N31I, F32Y
# VL: B5 VL
# B11: TPP-24893 (antibody, V domains shown)
# VL: B1 VL with Q27E, S30D, L41Q, S47P, Q49K, L58R, E59A, A64D
# B12: TPP-24829 (antibody, V domains shown)
# VL: DIVLTQSPASLAVSPGQRATITCKASESVDSFGATFMHWYQQKPGQPPKLLIYLASNRASGVPDRFSGSGSGTDFTLKISRVEAEDVGVYYCQQNNEDPYTFGQGTKLEIK
# B13: TPP-29857 (antibody, V domains shown)
# VH: B5 VH with F32Y
# VL: B5 VL with Y100W
# B14: TPP-29860 (antibody, V domains shown)
# VH: B5 VH with F32Y
# VL: B5 VL with Q93T
# B15: TPP-24917 (antibody, V domains shown)
# VL: B1 VL with L58R, E59A, A64D
# B16: TPP-24875 (antibody, V domains shown)
# VL: DIVMTQSPLSLPVTPGEPASISCRSSQSVSSFGATFMHWYQQKPGQPPKLLIYLASNRASGVPDRFSGSGSGTDFTLTINPVEADDTANYYCQQNNEDPYTFGQGTKLEIK
# B17: TPP-24901 (antibody, V domains shown)
# VL: B1 VL with Q27E, S30D, L58R, E59A, A64D
# B18: TPP-24869 (antibody, V domains shown)
# VL: DIVMTQSPLSLPVTPGEPASISCRSSESVDSFGATFMHWYLQKPGQSPQLLIYLASNRASGVPDRFSGSGSGTDFTLKISRVEAEDVGVYYCQQNNEDPYTFGQGTKLEIK
# B19: TPP-29846 (antibody, V domains shown)
# VH: B5 VH with N31P, F32Y
# VL: B5 VL
# B20: TPP-26939 (antibody, V domains shown)
# VH: EVQLVESGGGLVQPGGSLRLSCAASGFTFSNYYINWVRQAPGKGLEWVGDIRLKSNNYEKHYAESVKGRFTISRDDSKNSLYLQMNSLKTEDTAVYYCAREGDYFDYWGQGTLVTVSS
# VL: B5 VL with E1D, G9A, T10S, S12A, L13V, E17Q, L21I, S22T, R24K
# B21: TPP-29847 (antibody, V domains shown)
# VH: B5 VH with F32Y
# VL: B5 VL with Y100F
# B22: TPP-24909 (antibody, V domains shown)
# VL: B1 VL with L41Q, S47P, Q49K, L58R, E59A, A64D
# B23: TPP-29854 (antibody, V domains shown)
# VH: B5 VH with F32Y
# VL: B5 VL with A55K
# B24: TPP-29856 (antibody, V domains shown)
# VH: B5 VH with F32Y
# VL: B5 VL with N57H
# B25: TPP-24911 (antibody, V domains shown)
# VL: B1 VL with K78T, S80N, R81P, E85D, V87T, G88A, V89N
# B26: TPP-29843 (antibody, V domains shown)
# VH: B5 VH with F32Y, S53T
# VL: B5 VL
# B27: TPP-29852 (antibody, V domains shown)
# VH: B5 VH with N31F, F32Y
# VL: B5 VL
# B28: TPP-24853 (antibody, V domains shown)
# VL: B12 VL with E27Q, D30S, Q41L, P47S, K49Q
# B29: TPP-24845 (antibody, V domains shown)
# VL: B12 VL with E27Q, D30S
# B30: TPP-29861 (antibody, V domains shown)
# VH: B5 VH with F32Y, S56R
# VL: B5 VL
# B31: TPP-29863 (antibody, V domains shown)
# VH: B5 VH with F32Y
# VL: B5 VL with S28R
# B32: TPP-24827 (antibody, V domains shown)
# VL: B12 VL with K78T, S80N, R81P, E85D, V87T, G88A, V89N
# B33: TPP-29866 (antibody, V domains shown)
# VH: B5 VH with F32Y, T57P
# VL: B5 VL
# B34: TPP-29850 (antibody, V domains shown)
# VH: B5 VH with F32Y
# VL: B5 VL with N57W
# B35: TPP-29864 (antibody, V domains shown)
# VH: B5 VH with F32Y
# VL: B5 VL with N57R
# B36: TPP-26922 (antibody, V domains shown)
# VH: B20 VH with I34M, N35S
# VL: B5 VL
# B37: TPP-29853 (antibody, V domains shown)
# VH: B5 VH with F32Y, F103M
# VL: B5 VL
# B38: TPP-29865 (antibody, V domains shown)
# VH: B5 VH with F32Y, M34F
# VL: B5 VL
# B39: TPP-29858 (antibody, V domains shown)
# VH: B5 VH with F32Y
# VL: B5 VL with S56R
# How the values were obtained:
# [1] = molecular target: T1, plasma-derived human activated protein …; assay: SPR
# [2] = molecular target: T1, plasma-derived human activated protein …; assay: SPR; head prints nM; kd/ka gives M
Binder,Kd [1] [nM],Kd [2] [nM]
B1,85.6,
B2,85.5,
B3,49.8,
B4,48.6,
B5,,10.7
B6,,16.2
B7,,10.2
B8,93.2,
B9,,26.1
B10,,10.1
B11,28.6,
B12,31.3,
B13,,13.3
B14,,23.9
B15,44.6,
B16,47.7,
B17,26.9,
B18,24.2,
B19,,6.37
B20,,52.1

Binder,Kd [1] [nM],Kd [2] [nM]
B21,,8.33
B22,46.2,
B23,,25.2
B24,,21.3
B25,43.2,
B26,,22.3
B27,,1.18
B28,51.5,
B29,54,
B30,,11.3
B31,,23.8
B32,31.7,
B33,,22.2
B34,,3.13
B35,,10.4
B36,,91.7
B37,,23.3
B38,,12.7
B39,,24.9
